Laboratory results as given in article doi:10.1101/2022.10.05.510932 (bioRxiv, 2022).

Key:
crystal structure = molecular target: the molecule itself; experiment: crystal structure
cryo-EM structure = molecular target: the molecule itself; experiment: cryo-EM structure

| Protein | binding result (crystal structure) | binding result (cryo-EM structure) |
| --- | --- | --- |
| truncated KpFtsZ (residues 11-316) (domain or fragment, Klebsiella pneumoniae, UniProt W9BCK7 11-316, looked up) AVIKVIGVGGGGGNAVEHMVRERIEGVEFFAVNTDAQALRKTAVGQTIQIGSGITKGLGAGANPEVGRNAADEDREALRAALDGADMVFIAAGMGGGTGTGAAPVVAEVAKDLGILTVAVVTKPFNFEGKKRMAFAEQGITELSKHVDSLITIPNDKLLKVLGRGISLLDAFGAANDVLKGAVQGIAELITRPGLMNVDFADVRTVMSEMGYAMMGSGVASGEDRAEEAAEMAISSPLLEDIDLSGARGVLVNITAGFDLRLDEFETVGNTIRAFASDNATVVIGTSLDPDMNDELRVTVVATGIG | binds | – |
| FtsZ from Klebsiella pneumoniae, full length, tag removed (natural protein, UniProt W9BCK7 1-383, looked up) MFEPMELTNDAVIKVIGVGGGGGNAVEHMVRERIEGVEFFAVNTDAQALRKTAVGQTIQIGSGITKGLGAGANPEVGRNAADEDREALRAALDGADMVFIAAGMGGGTGTGAAPVVAEVAKDLGILTVAVVTKPFNFEGKKRMAFAEQGITELSKHVDSLITIPNDKLLKVLGRGISLLDAFGAANDVLKGAVQGIAELITRPGLMNVDFADVRTVMSEMGYAMMGSGVASGEDRAEEAAEMAISSPLLEDIDLSGARGVLVNITAGFDLRLDEFETVGNTIRAFASDNATVVIGTSLDPDMNDELRVTVVATGIGMDKRPEITLVTNKQVQQPVMDRYQQHGMSPLTQEQKPAAKVVNDNTPQTAKEPDYLDIPAFLRKQAD | – | binds |
